These results are taken from US7045613 (Amgen, dated 2006).

The test concerns the target T1, Human IKK-α containing an N-terminal Flag epitope tag (human, UniProt O15111 1-745).
T1 construct: Transiently expressed in 293 cells for coimmunoprecipitation; also called IκB Kinase
T1 sequence: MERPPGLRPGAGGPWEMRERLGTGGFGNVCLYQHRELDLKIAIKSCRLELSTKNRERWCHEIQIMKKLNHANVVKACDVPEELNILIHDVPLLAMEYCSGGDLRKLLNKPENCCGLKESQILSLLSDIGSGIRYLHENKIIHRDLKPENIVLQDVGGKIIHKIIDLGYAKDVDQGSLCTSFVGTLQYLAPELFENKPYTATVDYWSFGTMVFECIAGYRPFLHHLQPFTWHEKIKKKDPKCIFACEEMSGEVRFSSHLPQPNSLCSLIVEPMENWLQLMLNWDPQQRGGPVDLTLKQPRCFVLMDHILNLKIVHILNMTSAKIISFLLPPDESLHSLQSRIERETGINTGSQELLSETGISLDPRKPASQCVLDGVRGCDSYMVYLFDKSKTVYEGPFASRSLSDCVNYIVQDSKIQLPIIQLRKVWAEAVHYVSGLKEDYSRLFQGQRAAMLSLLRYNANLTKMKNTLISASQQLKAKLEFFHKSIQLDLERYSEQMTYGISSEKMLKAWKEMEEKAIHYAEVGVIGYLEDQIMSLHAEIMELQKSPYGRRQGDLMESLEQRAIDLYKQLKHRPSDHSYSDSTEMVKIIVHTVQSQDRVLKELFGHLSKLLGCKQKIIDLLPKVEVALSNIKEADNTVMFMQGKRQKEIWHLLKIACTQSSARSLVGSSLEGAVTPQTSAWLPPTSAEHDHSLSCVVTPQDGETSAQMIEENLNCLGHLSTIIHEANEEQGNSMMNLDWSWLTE
Nature of the test: coimmunoprecipitation from 293 cell lysates, anti-Flag IP, anti-HA immunoblot. The source says:
Human IKK-α containing an N-terminal Flag epitope tag was transiently coexpressed in 293 human embryonic kidney cells with Myc epitope-tagged NIK or HA epitope-tagged TRAF proteins. Cell lysates were immunoprecipitated using a monoclonal antibody against the Flag epitope, and coprecipitating NIK or TRAF proteins were detected by immunoblot analysis with an anti-Myc or anti-HA monoclonal antibodies.
(In western blotting, separated proteins are transferred to a membrane and probed.)

B1: HA epitope-tagged TRAF2 (other, UniProt Q12933 1-501, looked up, not shown: small tags and cut ends)
chain: MAAASVTPPGSLELLQPGFSKTLLGTKLEAKYLCSACRNVLRRPFQAQCGHRYCSFCLASILSSGPQNCAACVHEGIYEEGISILESSSAFPDNAARREVESLPAVCPSDGCTWKGTLKEYESCHEGRCPLMLTECPACKGLVRLGEKERHLEHECPERSLSCRHCRAPCCGADVKAHHEVCPKFPLTCDGCGKKKIPREKFQDHVKTCGKCRVPCRFHAIGCLETVEGEKQQEHEVQWLREHLAMLLSSVLEAKPLLGDQSHAGSELLQRCESLEKKTATFENIVCVLNREVERVAMTAEACSRQHRLDQDKIEALSSKVQQLERSIGLKDLAMADLEQKVLEMEASTYDGVFIWKISDFARKRQEAVAGRIPAIFSPAFYTSRYGYKMCLRIYLNGDGTGRGTHLSLFFVVMKGPNDALLRWPFNQKVTLMLLDQNNREHVIDAFRPDVTSSSFQRPVNDMNIASGCPLFCPVSKMEAKNSYVRDDAIFIKAIVDLTGL
notes: Transiently coexpressed in 293 cells
For the molecule B1, the binding result is “no binding”.

B2: HA epitope-tagged TRAF3 (other, UniProt Q13114 1-568, looked up, not shown: small tags and cut ends)
chain: MESSKKMDSPGALQTNPPLKLHTDRSAGTPVFVPEQGGYKEKFVKTVEDKYKCEKCHLVLCSPKQTECGHRFCESCMAALLSSSSPKCTACQESIVKDKVFKDNCCKREILALQIYCRNESRGCAEQLMLGHLLVHLKNDCHFEELPCVRPDCKEKVLRKDLRDHVEKACKYREATCSHCKSQVPMIALQKHEDTDCPCVVVSCPHKCSVQTLLRSELSAHLSECVNAPSTCSFKRYGCVFQGTNQQIKAHEASSAVQHVNLLKEWSNSLEKKVSLLQNESVEKNKSIQSLHNQICSFEIEIERQKEMLRNNESKILHLQRVIDSQAEKLKELDKEIRPFRQNWEEADSMKSSVESLQNRVTELESVDKSAGQVARNTGLLESQLSRHDQMLSVHDIRLADMDLRFQVLETASYNGVLIWKIRDYKRRKQEAVMGKTLSLYSQPFYTGYFGYKMCARVYLNGDGMGKGTHLSLFFVIMRGEYDALLPWPFKQKVTLMLMDQGSSRRHLGDAFKPDPNSSSFKKPTGEMNIASGCPVFVAQTVLENGTYIKDDTIFIKVIVDTSDLPDP
notes: as for B1
Consider B2, for which the binding result is on record as “no binding”.
